Assay results taken from patent US20250296995A1.

The substances below were run against recombinant Plasmodium falciparum circumsporozoite protein (CSP) (Plasmodium falciparum) (UniProt P19597) (assay: cell-based or functional assay).
Chain of recombinant Plasmodium falciparum circumsporozoite protein (CSP) (Plasmodium falciparum) (P19597 21-375 limits assumed): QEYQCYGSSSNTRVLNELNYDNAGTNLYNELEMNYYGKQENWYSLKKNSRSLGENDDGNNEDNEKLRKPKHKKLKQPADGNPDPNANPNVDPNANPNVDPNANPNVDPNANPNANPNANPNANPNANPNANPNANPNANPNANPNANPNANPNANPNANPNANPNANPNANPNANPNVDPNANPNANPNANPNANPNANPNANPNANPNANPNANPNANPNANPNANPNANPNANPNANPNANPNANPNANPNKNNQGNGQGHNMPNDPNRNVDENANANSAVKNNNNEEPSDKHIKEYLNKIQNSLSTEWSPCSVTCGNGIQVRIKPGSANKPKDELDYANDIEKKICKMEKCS
Substance 317 DE-LS (antibody) has a Geo Mean EC50 (ug/ml), ADNKA, Donor 1 of 0.0027 µg/mL, a Geo Mean EC50 (ug/ml), ADNKA, Donor 2 of 0.0022 µg/mL and a Geo Mean EC50 (ug/ml), ADNKA, Donor 3 of 0.0276 µg/mL. It also gave a Geo Mean EC50 (ug/ml), ADNKA, Donor 4 of 0.0111 µg/mL.
With 317 LS (antibody) the Geo Mean EC50 (ug/ml), ADNKA, Donor 1 was 0.0567 µg/mL, the Geo Mean EC50 (ug/ml), ADNKA, Donor 2 was 0.231 µg/mL and the Geo Mean EC50 (ug/ml), ADNKA, Donor 3 was 0.151 µg/mL. It also gave a Geo Mean EC50 (ug/ml), ADNKA, Donor 4 of 0.0709 µg/mL.
Substance CIS43 LS (antibody) has a Geo Mean EC50 (ug/ml), ADNKA, Donor 1 of 0.0277 µg/mL, a Geo Mean EC50 (ug/ml), ADNKA, Donor 2 of 0.143 µg/mL and a Geo Mean EC50 (ug/ml), ADNKA, Donor 3 of 0.104 µg/mL. It also gave a Geo Mean EC50 (ug/ml), ADNKA, Donor 4 of 0.0643 µg/mL.
In the case of L9 LS (antibody), the Geo Mean EC50 (ug/ml), ADNKA, Donor 1 is reported as 0.038 µg/mL, the Geo Mean EC50 (ug/ml), ADNKA, Donor 2 is reported as 0.514 µg/mL and the Geo Mean EC50 (ug/ml), ADNKA, Donor 3 is reported as 0.0887 µg/mL. For the same substance, the Geo Mean EC50 (ug/ml), ADNKA, Donor 4 was 0.0286 µg/mL.

These substances were tested against human FcRn (human) (UniProt P55899) (assay: SPR, human FcRn, pH 6.0).
Chain of human FcRn (human) (P55899 24-297 limits assumed, form in doubt, chain 1 of 2): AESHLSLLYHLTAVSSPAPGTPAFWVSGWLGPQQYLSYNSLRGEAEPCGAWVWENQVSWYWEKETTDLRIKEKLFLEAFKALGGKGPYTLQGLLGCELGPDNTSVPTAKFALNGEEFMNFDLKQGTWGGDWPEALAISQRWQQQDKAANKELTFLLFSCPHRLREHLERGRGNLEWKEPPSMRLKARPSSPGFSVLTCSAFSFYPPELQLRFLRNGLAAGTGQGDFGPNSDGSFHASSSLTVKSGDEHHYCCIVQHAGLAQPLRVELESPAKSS
Chain of human FcRn (human) (chain, as listed by the source limits assumed, form in doubt, chain 2 of 2): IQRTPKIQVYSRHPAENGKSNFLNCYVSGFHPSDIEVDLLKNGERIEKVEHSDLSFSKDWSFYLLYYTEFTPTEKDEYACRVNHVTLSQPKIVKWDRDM
Work on L9 (antibody) yielded a Kd of 174 nM.
hIgG1 WT control (antibody) showed a Kd of 102 nM.

The substances below were run against recombinant Plasmodium falciparum circumsporozoite protein (CSP) (Plasmodium falciparum) (UniProt P19597) (assay: SPR, recombinant CSP; geometric mean, n=2).
L9 (antibody) gave a Kd of 0.04 nM.
